pKd: −log10 of the molar value.
Columns and labels:
Assay in all cases: EMSA
Settings in all cases: N16 of strand 1 = tetrahydrofuran (THF) abasic site analog; EMSA: 50 mM Tris pH 8.0, 1 mM EDTA, 0.2 mg/ml BSA, 50 mg/ml sucrose, 0.5 mg/ml bromophenol blue, 1 mM DTT; 2 nM DNA, at least 20 min; 10% 59:1 native gel …
[1] = target: APE1 N174A N174A (Homo sapiens) (UniProt P27695)
[2] = target: APE1 N174D N174D (Homo sapiens) (UniProt P27695)
[3] = target: APE1 N174K N174K (Homo sapiens) (UniProt P27695)
APE1 N174K N174K (Homo sapiens), sequence (P27695 whole entry N174K): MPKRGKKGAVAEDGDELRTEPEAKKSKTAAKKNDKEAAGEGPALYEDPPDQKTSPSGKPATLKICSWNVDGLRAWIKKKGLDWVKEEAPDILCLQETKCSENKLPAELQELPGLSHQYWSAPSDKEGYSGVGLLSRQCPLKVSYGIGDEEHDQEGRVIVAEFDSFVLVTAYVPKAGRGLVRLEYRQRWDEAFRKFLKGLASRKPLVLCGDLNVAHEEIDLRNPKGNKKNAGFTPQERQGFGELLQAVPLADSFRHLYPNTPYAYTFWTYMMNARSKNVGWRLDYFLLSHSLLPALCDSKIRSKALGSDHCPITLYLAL

APE1 WT (Homo sapiens) = APE1 WT (Homo sapiens) (UniProt P27695)
APE1 WT (Homo sapiens), sequence (P27695 whole entry): as the sequence (P27695 whole entry N174K) above, with K174N counted along it

APE1 N174D N174D (Homo sapiens), sequence (P27695 whole entry N174D): as the sequence (P27695 whole entry N174K) above, with K174D counted along it
APE1 N174A N174A (Homo sapiens), sequence (P27695 whole entry N174A): as the sequence (P27695 whole entry N174K) above, with K174A counted along it

“CGTTCGCTGATGCGCNCGACGGATCCGCAT / ATGCGGATCCGTCGAGCGCATCAGCGAACG [30-bp THF AP-DNA]” showed a pKd [1] of 7.36, a pKd [2] of 7.89 and a pKd [3] of 7.77. It also gave a pKd (APE1 WT (Homo sapiens)) of 9.05.

— PMC12557600
